Assay results reported in patent US20250163127A1.
Several values for one entry are separate records, joined by “and”; a condition that tells them apart may be missing. Identical values can stand only once. Values belong to the substance of their own block, whether it stands above or below them.

How the values were obtained:
[1] = molecular target: ICOS as used in the OD read-out of Table E15A (Homo sapiens (Human)) (UniProt Q9Y6W8); experiment: OD read-out, format not told
[2] = molecular target: CD28, full-length, expressed on transfected cells (Homo sapiens (Human)) (UniProt P10747); experiment: flow cytometry, cells expressing target
CD28 (human) [3] = molecular target: CD28 (human) (UniProt P10747); experiment: flow cytometry, transfected cells
[4] = molecular target: ICOS (Homo sapiens (Human)) (UniProt Q9Y6W8); experiment: flow cytometry, transfected cells
[5] = molecular target: CTLA-4 (Homo sapiens (Human)) (UniProt P16410); experiment: flow cytometry, transfected cells
PD-L1 (human) = experiment: flow cytometry on HEK293 cells transfected with PD-L1
CD80 (human) [6] = experiment: flow cytometry, cells expressing CD80, 20 nM
human PD-1 (human) [7] = molecular target: human PD-1 (human) (UniProt Q15116)
ICOSL (human) = molecular target: T1, ICOSL (human) (UniProt O75144); experiment: flow cytometry, cells expressing the partner
T1 sequence: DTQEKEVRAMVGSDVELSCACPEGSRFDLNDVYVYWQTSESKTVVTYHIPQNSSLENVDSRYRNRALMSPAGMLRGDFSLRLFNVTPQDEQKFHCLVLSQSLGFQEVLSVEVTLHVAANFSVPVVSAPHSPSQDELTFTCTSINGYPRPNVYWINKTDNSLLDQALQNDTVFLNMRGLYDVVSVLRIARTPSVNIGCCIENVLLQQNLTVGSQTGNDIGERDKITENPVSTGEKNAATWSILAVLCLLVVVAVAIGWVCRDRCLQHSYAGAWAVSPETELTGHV

CD86 (human) = CD86 (human) (UniProt P42081); experiment: flow cytometry, cells expressing the partner
CD80 (human) [8] = molecular target: CD80 (human) (UniProt P33681); experiment: flow cytometry, cells expressing the partner
human ICOSL (human) = molecular target: T2, human ICOSL (human); experiment: flow cytometry, cells expressing human ICOSL
T2 sequence: T1 sequence

TIGIT (human) [9] = molecular target: T3, TIGIT (human) (UniProt Q495A1); experiment: flow cytometry, transfected HEK293
T3 sequence: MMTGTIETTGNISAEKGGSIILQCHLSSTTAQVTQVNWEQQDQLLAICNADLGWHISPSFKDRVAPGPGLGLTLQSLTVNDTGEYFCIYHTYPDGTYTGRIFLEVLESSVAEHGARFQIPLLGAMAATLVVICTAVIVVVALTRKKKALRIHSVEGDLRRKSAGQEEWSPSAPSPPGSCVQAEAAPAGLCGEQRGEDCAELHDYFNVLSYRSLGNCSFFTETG

CD112R (human) = CD112R (human) (UniProt Q6DKI7); experiment: flow cytometry, transfected HEK293
TIGIT (human) [10] = molecular target: T3, TIGIT (human); experiment: flow cytometry on transfected HEK293 cells, 100 nM
human PD-1 (human) [11] = molecular target: human PD-1 (human) (UniProt Q15116); experiment: flow cytometry, cells expressing PD-1, 20 nM
[12] = molecular target: ICOS, full-length, expressed on transfected cells (Homo sapiens (Human)) (UniProt Q9Y6W8); experiment: flow cytometry, cells expressing target
[13] = molecular target: CTLA-4, full-length, expressed on transfected cells (Homo sapiens (Human)) (UniProt P16410); experiment: flow cytometry, cells expressing target
CD96 (human) [14] = molecular target: T4, CD96 (human) (UniProt P40200); experiment: flow cytometry on transfected HEK293 cells, 100 nM
T4 sequence: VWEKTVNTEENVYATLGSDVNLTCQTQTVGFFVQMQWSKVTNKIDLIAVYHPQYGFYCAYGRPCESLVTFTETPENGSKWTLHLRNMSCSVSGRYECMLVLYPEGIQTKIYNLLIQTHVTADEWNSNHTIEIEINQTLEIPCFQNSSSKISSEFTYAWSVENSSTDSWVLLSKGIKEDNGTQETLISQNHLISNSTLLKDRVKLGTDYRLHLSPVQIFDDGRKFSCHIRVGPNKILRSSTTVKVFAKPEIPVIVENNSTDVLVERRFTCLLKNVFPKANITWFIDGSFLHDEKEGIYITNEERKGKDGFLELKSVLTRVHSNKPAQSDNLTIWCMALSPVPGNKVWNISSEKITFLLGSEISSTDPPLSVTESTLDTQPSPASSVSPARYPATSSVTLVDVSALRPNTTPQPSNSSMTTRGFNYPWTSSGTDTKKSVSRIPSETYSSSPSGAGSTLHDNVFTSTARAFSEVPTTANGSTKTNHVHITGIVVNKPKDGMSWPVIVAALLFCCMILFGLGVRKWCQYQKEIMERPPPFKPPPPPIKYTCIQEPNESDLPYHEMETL

CD28 (human) [15] = molecular target: CD28 (human) (UniProt P10747); experiment: flow cytometry, Jurkat cells (endogenous CD28), 100 nM, anti-Flag
human CTLA-4 (human) = experiment: flow cytometry, CHO/CTLA-4 cells, 100 nM, anti-Flag
CD96 (human) [16] = molecular target: T4, CD96 (human); experiment: flow cytometry, CD96-transfected Expi293 cells
CD226 (human) = molecular target: T5, CD226 (human) (UniProt Q15762); experiment: flow cytometry, CD226-transfected Expi293 cells
T5 sequence: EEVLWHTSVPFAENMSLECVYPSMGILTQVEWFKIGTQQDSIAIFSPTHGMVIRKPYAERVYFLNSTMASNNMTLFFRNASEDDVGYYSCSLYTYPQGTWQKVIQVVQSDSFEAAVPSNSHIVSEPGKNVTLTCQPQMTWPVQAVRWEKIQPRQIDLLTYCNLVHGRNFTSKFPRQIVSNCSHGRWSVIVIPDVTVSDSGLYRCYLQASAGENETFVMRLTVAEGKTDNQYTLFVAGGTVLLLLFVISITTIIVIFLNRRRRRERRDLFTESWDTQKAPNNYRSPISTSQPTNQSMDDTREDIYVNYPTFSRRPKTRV

TIGIT (human) [17] = molecular target: T3, TIGIT (human); experiment: flow cytometry, TIGIT-transfected Expi293 cells
CD96 (human) [18] = molecular target: T4, CD96 (human); experiment: flow cytometry, CD96-transfected Expi293 cells; ratio to wild-type CD155

Wild type CD155 IgV-Fc (Fc fusion), sequence (chain): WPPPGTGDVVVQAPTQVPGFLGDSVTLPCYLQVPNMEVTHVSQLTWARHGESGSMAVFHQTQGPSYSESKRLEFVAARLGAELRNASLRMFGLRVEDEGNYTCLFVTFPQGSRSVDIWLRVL
CTLA-4, full-length, expressed on transfected cells (Homo sapiens (Human)), sequence (P16410 36-223): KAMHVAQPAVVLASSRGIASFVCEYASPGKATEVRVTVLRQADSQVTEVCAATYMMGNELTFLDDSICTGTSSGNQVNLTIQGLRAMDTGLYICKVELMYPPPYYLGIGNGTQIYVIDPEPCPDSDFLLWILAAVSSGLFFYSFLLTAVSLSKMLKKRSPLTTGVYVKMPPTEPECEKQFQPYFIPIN
CD80 (human) (UniProt P33681), sequence (P33681 35-288): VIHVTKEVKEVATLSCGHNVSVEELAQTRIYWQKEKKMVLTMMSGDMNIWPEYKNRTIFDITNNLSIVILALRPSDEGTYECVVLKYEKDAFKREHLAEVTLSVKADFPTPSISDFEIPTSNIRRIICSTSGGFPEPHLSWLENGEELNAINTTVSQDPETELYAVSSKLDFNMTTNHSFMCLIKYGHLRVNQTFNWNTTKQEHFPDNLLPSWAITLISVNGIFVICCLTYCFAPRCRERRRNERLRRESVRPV
ICOS (Homo sapiens (Human)), sequence (Q9Y6W8 21-199 limits assumed): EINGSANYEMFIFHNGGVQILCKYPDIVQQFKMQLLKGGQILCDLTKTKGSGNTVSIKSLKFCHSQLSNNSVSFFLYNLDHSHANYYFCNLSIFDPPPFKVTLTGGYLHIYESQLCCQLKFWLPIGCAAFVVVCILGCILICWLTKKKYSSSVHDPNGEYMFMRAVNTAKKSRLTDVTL
CD112R (human), sequence (Q6DKI7 whole entry): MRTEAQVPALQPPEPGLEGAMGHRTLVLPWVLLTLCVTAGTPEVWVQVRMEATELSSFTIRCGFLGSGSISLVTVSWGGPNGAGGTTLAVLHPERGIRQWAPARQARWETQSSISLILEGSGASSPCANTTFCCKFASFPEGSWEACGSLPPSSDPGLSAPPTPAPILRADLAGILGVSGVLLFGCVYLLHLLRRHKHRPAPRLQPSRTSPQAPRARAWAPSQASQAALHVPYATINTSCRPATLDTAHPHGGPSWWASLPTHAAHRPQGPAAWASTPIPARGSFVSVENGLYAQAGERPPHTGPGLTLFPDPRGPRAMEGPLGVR
CD112 ECD-Fc (Fc fusion), sequence (chain): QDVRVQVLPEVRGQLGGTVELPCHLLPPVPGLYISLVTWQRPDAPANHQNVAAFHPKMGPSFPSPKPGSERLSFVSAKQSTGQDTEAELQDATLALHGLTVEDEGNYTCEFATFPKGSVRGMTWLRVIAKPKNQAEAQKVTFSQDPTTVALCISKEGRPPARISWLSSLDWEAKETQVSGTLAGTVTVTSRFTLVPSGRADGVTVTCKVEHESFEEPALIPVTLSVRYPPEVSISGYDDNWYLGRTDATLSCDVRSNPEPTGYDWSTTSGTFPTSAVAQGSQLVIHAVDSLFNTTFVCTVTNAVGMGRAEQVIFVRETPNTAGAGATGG
human PD-1 (human), sequence (Q15116 25-288): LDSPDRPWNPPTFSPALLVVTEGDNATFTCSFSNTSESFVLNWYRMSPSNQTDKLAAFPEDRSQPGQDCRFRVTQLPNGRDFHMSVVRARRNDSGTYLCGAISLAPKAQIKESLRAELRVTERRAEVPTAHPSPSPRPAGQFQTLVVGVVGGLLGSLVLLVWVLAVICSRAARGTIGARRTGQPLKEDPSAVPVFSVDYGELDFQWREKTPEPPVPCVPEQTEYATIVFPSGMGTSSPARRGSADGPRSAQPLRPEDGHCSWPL
CTLA-4 (Homo sapiens (Human)), sequence (P16410 36-223): as the sequence (P16410 36-223) above
Wild-type PD-L1 (IgV, SEQ ID NO 309) (ligand), sequence (chain): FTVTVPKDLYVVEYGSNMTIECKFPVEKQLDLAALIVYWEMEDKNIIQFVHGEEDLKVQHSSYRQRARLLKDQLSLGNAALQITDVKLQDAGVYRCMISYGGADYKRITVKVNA
ICOS, full-length, expressed on transfected cells (Homo sapiens (Human)), sequence (Q9Y6W8 21-199 limits assumed): as the sequence (Q9Y6W8 21-199 limits assumed) above
PD-L1 (human), sequence (chain, as listed by the source): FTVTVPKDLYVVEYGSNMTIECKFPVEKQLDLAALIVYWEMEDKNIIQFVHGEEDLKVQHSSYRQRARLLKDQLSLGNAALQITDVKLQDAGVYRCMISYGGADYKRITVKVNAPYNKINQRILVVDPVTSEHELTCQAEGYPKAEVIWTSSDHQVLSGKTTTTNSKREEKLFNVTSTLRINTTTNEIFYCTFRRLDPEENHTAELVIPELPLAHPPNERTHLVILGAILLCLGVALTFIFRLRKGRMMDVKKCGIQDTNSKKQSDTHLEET
human CTLA-4 (human), sequence (chain, as listed by the source): as the sequence (P16410 36-223) above
CD80 (human), sequence (chain, as listed by the source): as the sequence (P33681 35-288) above

Substance: ICOSL ECD-Fc N52H/N57Y/Q100P (Fc fusion)
- OD [1]: 1.57 OD
- MFI [2]: 447 MFI
- parental ratio [2]: 24.8 ratio to WT

Substance: Variant CD80 S44P/A71D Fc fusion
- MFI at 22.2 nM (PD-L1 (human)): 6310 MFI

Substance: variant PD-L2 IgV H15Q/T47A/K65R/S67L/Q82R/V89D Fc fusion
- IFN gamma levels pg/mL (MLR) (human PD-1 (human) [7]): 1340 pg/mL

Substance: CTLA-4 ECD-Fc L63P/L98Q/Y105L (Fc fusion)
- MFI (ICOSL (human)): 1800 MFI
- MFI (CD86 (human)): 411000 MFI
- MFI (CD80 (human) [8]): 4720 MFI

Substance: ICOSL ECD-Fc N52S/S130G/Y152C (Fc fusion)
- OD [1]: 0.16 OD
- parental ratio [1]: 0.19 ratio to WT
- MFI [2]: 24 MFI

Substance: variant CD112 IgV-Fc Y33H, A112V (Fc fusion)
- MFI at 100 nM (TIGIT (human) [10]): 20600 MFI

Substance: variant PD-L1 G15A/I36T/V129D/R195G Fc fusion
- MFI at 20 nM (human PD-1 (human) [11]): 125 MFI

Substance: Wild-type PD-L1 (IgV, SEQ ID NO 309) (ligand)
- MFI (CD28 (human) [15]): 716
- MFI (human CTLA-4 (human)): 97.4

Substance: Wild type CD155 IgV-Fc (Fc fusion)
- MFI (CD96 (human) [16]): 3080
- MFI (CD226 (human)): 3720
- MFI (TIGIT (human) [17]): 2720

Substance: CTLA-4 ECD-Fc L12P/A26T (Fc fusion)
- MFI (ICOSL (human)): 928 MFI
- MFI (CD86 (human)): 276000 MFI
- MFI ratio to WT (ΔWT) (CD86 (human)): 0.4 fold
- MFI (CD80 (human) [8]): 1024 MFI

Substance: CD155 IgV-Fc P18T, F91S, R94H (Fc fusion)
- MFI (CD96 (human) [16]): 2510
- MFI (CD226 (human)): 3590
- MFI parental ratio (CD96 (human) [18]): 0.8
- MFI (TIGIT (human) [17]): 2940

Substance: ICOSL ECD-Fc N52S/E220G (Fc fusion)
- MFI [13]: 1800 MFI

Results, then the substance that gave them:

- MFI (CD28 (human) [3]): 142000 MFI
- MFI ratio to WT (ΔWT) (CD28 (human) [3]): 6.4 fold
- MFI [4]: 200000 MFI
- MFI ratio to WT (ΔWT) [4]: 0.94 fold
- MFI [5]: 817000 MFI
- MFI ratio to WT (ΔWT) [5]: 2.47 fold
Substance: ICOSL-Fc N52H/N57Y/Q100R (Fc fusion)

- MFI at 20 nM (CD80 (human) [6]): 150 MFI
Substance: variant PD-L1 V93E/V129D Fc fusion

- MFI (ICOSL (human)): 873 MFI
- MFI (CD86 (human)): 762000 MFI
- MFI (CD80 (human) [8]): 829 MFI
Substance: CTLA-4 ECD-Fc L12P/A26T/L63P/L98Q/Y105L (Fc fusion)

- MFI (human ICOSL (human)): 570 MFI
Substance: variant CTLA-4 ECD-Fc G29W/L98Q/Y105L (Fc fusion)

- MFI at 20 nM (TIGIT (human) [9]): 69700
- MFI at 20 nM (CD112R (human)): 1140 and 1110
Substance: CD112 IgV-Fc A112V (Fc fusion)

- MFI [12]: 180000 MFI
- MFI [13]: 62800 MFI
- parental ratio [13]: 3.55 ratio to WT
- MFI [2]: 120000 MFI
- parental ratio [2]: 26.8 ratio to WT
Substance: ICOSL ECD-Fc V11E/N30D/N52H/N57Y/H94E/L96I/L98F/N194D/V210A/I218T (Fc fusion)

- MFI at 100 nM (TIGIT (human) [10]): 29200 MFI
- MFI at 100 nM (CD96 (human) [14]): 1100 MFI
Substance: CD112 ECD-Fc (Fc fusion)

- MFI (human ICOSL (human)): 613 MFI
Substance: variant CTLA-4 ECD-Fc L12F/R16H/G29W/M56T/S72G/L98Q/Y105L (Fc fusion)

- MFI (human ICOSL (human)): 862 MFI
Substance: variant CTLA-4 ECD-Fc L12F/R16H/G29W/L98Q/Y105L (Fc fusion)

- MFI (ICOSL (human)): 966 MFI
- MFI (CD86 (human)): 596000 MFI
- MFI (CD80 (human) [8]): 3930 MFI
Substance: CTLA-4 ECD-Fc L63P (Fc fusion)
